Experimental data as given in US20190248888A1, “METHODS OF LOWERING BLOOD GLUCOSE LEVELS” (Regeneron Pharmaceuticals, Inc., priority 2016, published 2019).

Test system: isolated pancreatic islets from mice
Assay: RNAseq gene expression in isolated pancreatic islets of GCGR antibody treated mice (Table 5)
Type: in vivo, mouse
Details: 10 mg/kg, 21 days
Experimental: Mouse islets were isolated by density gradient separation after perfusing pancreas with Liberase TL (Roche, Indianapolis) through the common bile duct. Following a 13 min digestion at 37° C., the pancreas solution was washed and filtered through a 400-μm wire mesh strainer and islets were separated by Histopaque gradient centrifugation (Sigma-Aldrich). Isolated islets were cultured overnight in RPMI-1640 medium supplemented with 10% (v/v) FBS, 10 mM HEPES, 50 μM β-mercaptoethanol, 1.0 mM sodium-pyruvate, 100 U/mL penicillin and 100 μg/mL streptomycin at 37° C. with a 5% CO2 in air atmosphere.
Total RNA was purified from all samples using MagMAX™-96 for Microarrays Total RNA Isolation Kit (Ambion by Life Technologies) according to manufacturer's specifications. Genomic DNA was removed using MagMAX™Turbo™DNase Buffer and TURBO DNase from the MagMAX kit listed above (Ambion by Life Technologies). mRNA was purified from total RNA using Dynabeads® mRNA Purification Kit (Invitrogen). Strand-specific RNA-seq libraries were prepared using ScriptSeq™ mRNA-Seq Library Preparation Kit (Epicentre). Twelve-cycle PCR was performed to amplify libraries. Sequencing was performed on Illumina HiSeq®2000 (Illumina) by multiplexed single-read run with 33 cycles.
Raw sequence data (BCL files) were converted to FASTQ format via Illumina Casava 1.8.2. Reads were decoded based on their barcodes and read quality was evaluated with FastQC (http://www.bioinformatics.babraham.ac.uk/projects/fastqc/). Reads were mapped to the mouse transcriptome (NCBI GRCh37) using CLC Genomics Workbench Version 7.0 (CLCbio) or TopHat2 (Version 2.0.10) allowing two mismatches. Reads mapped to the exons of a gene were summed at the gene level. To identify differentially expressed genes, the statistical significance (p-value) of the differential expressions was assessed with DESeq package (version 1.6 or 2.0). […]

[1] = α-GCGR vs Control, isolated islets

B1: α-GCGR: potent monoclonal GCGR blocking antibody, HCVR/LCVR SEQ ID NOs: 86/88 (antibody, V domains shown)
VH: EVQLVESGGGLVQPGGSLRLSCAASGFTFSNYLMNWVRQAPGKGLEWLANIQEDGIEKYYVDSVKGRFTISRDNAKNSLYLQMNSLRAEDTAVYYCAREPSHYDILTGYDYYYGMDVWGQGTTVTVS
VL: DIQMTQSPSSLSASVGDRVTITCRASQGIRNDLGWYQQKPGKAPKRLIYAASSLQSGVPSRFSGSGSGTEFILTVSSLQPEDFATYYCLQYNSNPFTFGPGTKVDIK
In the case of B1, the “Slc38a5 gene expression in isolated pancreatic islets” value (mice, vs control antibody) is reported as “most upregulated gene”, the “1700086L19Rik Fold change” value [1] is reported as 1.89 and the “1810011O10Rik Fold change” value [1] is reported as −1.64. For the same molecule, the “1810041L15Rik Fold change” value [1] was 1.67, the “4930539E08Rik Fold change” value [1] was 1.96 and the “9030617O03Rik Fold change” value [1] was 1.72. The “AW551984 Fold change” value [1] was 1.69, the “Acta1 Fold change” value [1] was −1.79 and the “Agpat4 Fold change” value [1] was 1.73. For the same molecule, the “Agt Fold change” value [1] was 1.78, the “Ang Fold change” value [1] was 1.62 and the “Ano1 Fold change” value [1] was −1.78. For the same molecule, the “Anxa3 Fold change” value [1] was −1.53, the “Anxa13 Fold change” value [1] was −1.60 and the “Apoa2 Fold change” value [1] was 1.68. For the same molecule, the “Apod Fold change” value [1] was 1.53, the “Apol7a Fold change” value [1] was −1.51 and the “Arg1 Fold change” value [1] was 1.53. The “Arx Fold change” value [1] was 1.59, the “Asb11 Fold change” value [1] was −1.51 and the “Avpr1b Fold change” value [1] was 2.54. The “Basp1 Fold change” value [1] was 1.65, the “Blnk Fold change” value [1] was 1.55 and the “Bok Fold change” value [1] was −1.85. The “Car9 Fold change” value [1] was −1.55, the “Cdc42ep1 Fold change” value [1] was −1.54 and the “Clec2d Fold change” value [1] was 1.82. For the same molecule, the “Clic6 Fold change” value [1] was −1.69, the “Clu Fold change” value [1] was −1.80 and the “Cnih2 Fold change” value [1] was 1.55. The “Cobl Fold change” value [1] was 1.58, the “Ctse Fold change” value [1] was −1.50 and the “Dbpht2 Fold change” value [1] was 1.87. For the same molecule, the “Dmbt1 Fold change” value [1] was −1.61, the “Dpp6 Fold change” value [1] was 1.79 and the “Drc1 Fold change” value [1] was 1.96. For the same molecule, the “Eda2r Fold change” value [1] was 1.59, the “Eef1a2 Fold change” value [1] was 2.18 and the “Ehf Fold change” value [1] was 1.61. For the same molecule, the “Etv1 Fold change” value [1] was 1.62, the “F5 Fold change” value [1] was 1.51 and the “Ffar4 Fold change” value [1] was 1.78. The “Fgd3 Fold change” value [1] was −1.67, the “Fgl2 Fold change” value [1] was 1.65 and the “Gamt Fold change” value [1] was −1.50. For the same molecule, the “Gbp8 Fold change” value [1] was 1.84, the “Gbp9 Fold change” value [1] was 1.74 and the “Gc Fold change” value [1] was 1.83. For the same molecule, the “Gcg Fold change” value [1] was 3.55, the “Gcnt4 Fold change” value [1] was 1.58 and the “Gfra1 Fold change” value [1] was 1.53. The “Gfra3 Fold change” value [1] was 2.71, the “Gm609 Fold change” value [1] was 2.04 and the “Gm20554 Fold change” value [1] was 1.67. For the same molecule, the “Gng2 Fold change” value [1] was 1.63, the “Gpr119 Fold change” value [1] was 1.54 and the “Gpx3 Fold change” value [1] was 2.86. For the same molecule, the “Hspb1 Fold change” value [1] was −1.54, the “Ifih1 Fold change” value [1] was 2.33 and the “Igsf23 Fold change” value [1] was −1.65. For the same molecule, the “Irx1 Fold change” value [1] was 1.83, the “Irx2 Fold change” value [1] was 2.00 and the “Itgb4 Fold change” value [1] was −1.69. The “Jchain Fold change” value [1] was 1.57, the “Kcna2 Fold change” value [1] was −1.68 and the “Kcnab3 Fold change” value [1] was −1.73. For the same molecule, the “Kcnf1 Fold change” value [1] was −1.56, the “Kcnk3 Fold change” value [1] was 2.23 and the “Klb Fold change” value [1] was 1.77. The “Klhl13 Fold change” value [1] was 1.91, the “Krt19 Fold change” value [1] was −1.61 and the “Krt20 Fold change” value [1] was −1.63. The “Krt23 Fold change” value [1] was −1.96, the “Lamb3 Fold change” value [1] was −1.71 and the “Mafb Fold change” value [1] was 1.86. For the same molecule, the “Mamld1 Fold change” value [1] was 1.75, the “Mapk13 Fold change” value [1] was −1.50 and the “Matn2 Fold change” value [1] was −1.55. For the same molecule, the “Ndst4 Fold change” value [1] was 2.71, the “Necab2 Fold change” value [1] was −1.50 and the “Nefm Fold change” value [1] was 1.53. For the same molecule, the “Npr1 Fold change” value [1] was −1.65, the “Nptxr Fold change” value [1] was −1.57 and the “Nsg2 Fold change” value [1] was 1.56. The “Ntn1 Fold change” value [1] was −1.61, the “Nudt11 Fold change” value [1] was 2.00 and the “Nyap1 Fold change” value [1] was 1.77. The “Ocrl Fold change” value [1] was 1.57, the “Oit1 Fold change” value [1] was 1.71 and the “Olfm3 Fold change” value [1] was 1.96. For the same molecule, the “Oxtr Fold change” value [1] was 1.53, the “Pdk4 Fold change” value [1] was 2.83 and the “Peg10 Fold change” value [1] was 2.06. The “Pla2g2d Fold change” value [1] was 1.50, the “Ptf1a Fold change” value [1] was −1.95 and the “Ptprd Fold change” value [1] was 1.62. The “Ptprg Fold change” value [1] was 1.52, the “Rasd1 Fold change” value [1] was −1.54 and the “Rbms3 Fold change” value [1] was 1.51. For the same molecule, the “Rbp4 Fold change” value [1] was 1.64, the “Rcn1 Fold change” value [1] was 1.54 and the “Rragb Fold change” value [1] was 1.67. For the same molecule, the “Sema3e Fold change” value [1] was 1.81, the “Serpinb6b Fold change” value [1] was −1.68 and the “Serpine2 Fold change” value [1] was 2.80. The “Serping1 Fold change” value [1] was 1.71, the “Sftpd Fold change” value [1] was 2.07 and the “Sgce Fold change” value [1] was 1.84. For the same molecule, the “Sh2d4a Fold change” value [1] was −1.52, the “Sh3bgr Fold change” value [1] was 1.54 and the “Slc38a3 Fold change” value [1] was −1.54. The “Slc38a5 Fold change” value [1] was 5.54, the “Smarca1 Fold change” value [1] was 1.88 and the “Spns2 Fold change” value [1] was −1.76. For the same molecule, the “St8sia1 Fold change” value [1] was −1.67, the “Syt16 Fold change” value [1] was 1.63 and the “Tead2 Fold change” value [1] was −1.60. The “Tesc Fold change” value [1] was 1.54, the “Tmsb15b1 Fold change” value [1] was 1.60 and the “Tspan1 Fold change” value [1] was −2.50. For the same molecule, the “Ttr Fold change” value [1] was 4.27, the “Vnn1 Fold change” value [1] was −1.50 and the “Vwde Fold change” value [1] was 2.23. The “Wfdc16 Fold change” value [1] was 1.51 and the “Wnk3 Fold change” value [1] was 2.33.
